Measured values reported in the nanobody polyreactivity screen of Harvey et al. (2022).

Test: yeast display, Sf9 membrane polyspecificity reagent, FACS + sequencing; frameworks hold sequencing errors
How it was run: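 Genes from sorted yeast were amplified by colony PCR, read by MiSeq 2 × 250 sequencing and filtered on CDR length. These cells carried a synthetic nanobody library in Saccharomyces cerevisiae BJ5465 and were sorted by FACS into low and high (top ~1%) gates on anti-HA and streptavidin fluorescence. Polyreactivity is labelled according to the gate of origin.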

Sequence | polyreactivity (PSR sort gate)
QVQLVESGGGLVQAGGILRLSCAAYGSISYGYGMGWYRQPPGKERELVATLSGRAGSTYYADSVKGRFTISRDNAKYTVYLQMNSLKPEDTAVYYCAAKWWRLTWTAGYGGRCYGYWGQGSQVTVSS | low polyreactivity
QVQLVESGGGLVQAGGILRLSCADSGRTFWYYAMGWYRQAHGKERELVAAITRGGRTNYADSVKGRFTISRDNAKNTVYLQMNSLKPEDTAVYYCAADYRYPAHSYGYWGQGTQVTVSS | high polyreactivity
QVQLVESGGGLVQAGGILRLSCADSGSTFIGYAMGWYRQAPRKERELFAAISKSGGSTYYADSVKGRFTISRDNAKNTVYLQMNSLKPEDTAVYYCIVDTSRYVSWNDYWGQGTQVTVSS | high polyreactivity
QVQLVESGGGLVQAGGILRLSCASSGRTFAWYAMGWYRPAPGKERELVAAITTRGSGTYYADSVKGRFTISRDNAKNTVYLQMNSLKPEDTAVYYGAKDPITATTLDERVYYWGQGTQLTVSS | low polyreactivity
QVQLVESGGGLVQAGGILRLSCASSGSTFGYNVMGWYRQAPGKERELVAAISSSGGSTYYADSVKGRFTISRDTAKNTVYLQMNSLNPEDTAVYYGAADVGFRWYRYTAGPLEYDYWGQGTQVTVSS | high polyreactivity
QVQLVESGGGLVQAGGILRLSCPASGIIFDGNVMGWYRQAPGKEREFVASISISGGSTSYADSVKGRFTISRDNAKNTVYLQMNSLKPEDTAVYYCNTDVGYGRVWRWRYHGDYWGQGTQVTVSS | low polyreactivity
QVQLVESGGGLVQAGGNLRLICDASGSIFLYNTMGWYRHAPGQERELVAAITYSGGSTYYADSVKGRFTISRDNAKNTVYLQMNSLNPEDTAVYYCNARHYSAFYSWGQGTQVTVSS | high polyreactivity
QVQLVESGGGLVQAGGNLRLSCAASGIILYRYAMGWYRQAHGKERELVAAISRRGGSTYYADSVKGRFTISRDNAKNSVYLQMNSLKPEDTAVYYCAAYYRGYAYYYWGQGTQVTVSS | high polyreactivity
QVQLVESGGGLVQAGGNLRLSCAASGSIFYWNAMGWYRQAPGKERELVAAINYSGDSTYYADSVKVRFTISRDNAKNTVYLQMNSLKPEDTAVYYCNFDYWGQGSQVTVSS | low polyreactivity
QVQLVESGGGLVQAGGRHRISCAASGLICVTYAMGWYRQAPGKERELVAVITASGDGTYYADSVKGRFTMSRDNAKNTVYLQMNSLKPEDSAVYSCAAGNMSQVGAIGKNTSQSDYWGQGTHVTVSS | low polyreactivity
QVQLVESGGGLVQAGGRIRLSCAASGIIFYPYAMGWYRQAPGKERELVAGISSSGGSTYYADSVKGRFTISRDNAKNTVYLQMNSLKPEDTAVYYCAAVRISRTPRGLYEYWGQGTQVTVSS | high polyreactivity
QVQLVESGGGLVQAGGRIRLTCAASGFTFKAYSMGCDRQAPGKERELVAAITKSGGRTFYADSVKGRFRISRDNAKNTVYLQMNSLKPEDTAVYYCAASYTVYYWGQGTQVTVSS | high polyreactivity
QVQLVESGGGLVQAGGRLLLSCAASGLTFYEYAMGWYRQAHGKERELVADIDFNGGSTSYAYSVKGRFTISRDNAKNTVYLQMNSLKPEDTAVYYCNTRDRGDVVTGLDYSGQGTQVTVSS | low polyreactivity
QVQLVESGGGLVQAGGRLPLSCAASGSTIYINAMGWYRQPPGKQRELVAPISYSGGSSYFADSVKGRFTISRDYAKNTVYFQKNSLIPEDTRVYYCYARGLQSFYPGYWFRGDFWGQGTQVTVSS | high polyreactivity
QVQLVESGGGLVQAGGRLRISCAASGFTFTRYAMRWYRQAPGKERELVAAISWSGGSTYYADSVKGRFTISRDNAKNTVSFQMNSLKPEDTAVYYCAKRGTVRQGGYGFWGQGTQVSVSS | high polyreactivity
QVQLVESGGGLVQAGGRLRISCAASGSTFQPYAMGWYRQAPGKERELVAAISWRGGSTYYADSVKGRFTISRDNAKNTVYLQMNSLKPEDTAVSYCAAYFYFRRGTDYDYWGQGTQVTVSS | high polyreactivity
QVQLVESGGGLVQAGGRLRITCAASGRTFKTYAMGWYRPAPGKERELVAAISRRGGSTYFADSVKGRFTISRDNAKNTVYLQMNSLKPEDTAVYYCASGNSVGLGWGQGTQVTLSS | high polyreactivity
QVQLVESGGGLVQAGGRLRLICAASGSTFVTNYMGWYRQAPGKERELVAAISSGTSTNYADSVKGRFTISRDNAKNSVYLPMNSLTPEDTAVYYCAADSLKRYDYWGQGTQVTVSS | low polyreactivity
QVQLVESGGGLVQAGGRLRLRCAASGFILDTYAMGGYRQAAGNERELVAGITVRGGSTYYADSVKGRFTISRDNAKNTVYLQMNSLKPEDTAVYYCNAAQDRFGYRRSGYWYDYWGQGTQVTVSS | low polyreactivity
QVQLVESGGGLVQAGGRLRLSCAAAGSIFSYTMGWYRQAPWKERELVAAIRRRGGSTYYADSVKGRFTISRDNAKNTVYLQMTSLKPEDTAVYYCAADGYQYRHRRFFYWGQGTQVTVSS | high polyreactivity
QVQLVESGGGLVQAGGRLRLSCAASASIFRLYAMGWYRQAPGKERELVAAIRWRAGSTYYADSVKGRFTLSRDNAKNTVYLQMNSLKPEETAVNYCAADAISSAWYAKYDYWGQGTQVTGSS | high polyreactivity
QVQLVESGGGLVQAGGRLRLSCAASGFIFRRYAIGWYRQAPGKERELVAAINRGGRTYYADSVKGRFTISRDNAKNTVYLQMNSLKPEDTAVYYCAVGSVSSDDWGQGTQVTVSS | high polyreactivity

Sequence | polyreactivity (PSR sort gate)
QVQLVESGGGLVQAGGRLRLSCAASGFIFSYYAMGWYRQAPGKERELVAAINYSGGRTYYADSVKGRFTISRDNAKNTVYLQMNSLKPEDTAVYYCNAVTFGRRAFDYWGQGTQVTVSS | high polyreactivity
QVQLVESGGGLVQAGGRLRLSCAASGFIFYYYAMGWYRQAPGKERELVAVLTESASSTYYADSVKGRFTISRDNAKNTVYLQMNSLKPEDTAVYYCNADFWPYTGKYDYWGQGTQVTVSS | low polyreactivity
QVQLVESGGGLVQAGGRLRLSCAASGFTFGWNAMGWYRQAPGKEREMVASIYSGDSTYYADSVKGRFTISRDNAKNTVYLQMNSLKPEDTAVYYCATAPYVTSRRYGPYEYWGQGTQVTVSS | low polyreactivity
QVQLVESGGGLVQAGGRLRLSCAASGFTFNVNALGGYRPAPGKERELVATITWSDGSTRYADSVKGRFTISRDNAKNTVYLQMNSLKPEDTAVYYCATRWSYPYSYRYYYWGQGTQVTVSS | low polyreactivity
QVQLVESGGGLVQAGGRLRLSCAASGFTFTRYAMGWYRQAPGKERELVAAISWSGGSTYYADSVKGRFTISRDNAKNTVYLQMNSLKPEDTAVYYCAKRGTVRQGGYGYWGQGTQVTVSS | high polyreactivity
QVQLVESGGGLVQAGGRLRLSCAASGFTFYRYAMGWYRQAPGKVRQLVATISASGGSTYYADSVKGRFTISRDNAKNTVYLQMNSLKPEDTAVYYCAVRYKSWYGFNYWGQGTQVTVSS | high polyreactivity
QVQLVESGGGLVQAGGRLRLSCAASGFTLTRNAMGWYRQAPGKERELVAAISWSGGTTYYADSVKGRFTISRDNAKNTVYLQMNSLKPEDTAVYYCNTASLRAHYYYWGQGTQVTVSS | high polyreactivity
QVQLVESGGGLVQAGGRLRLSCAASGFTQGSYAMGWHRQAPGKEREFVAGITDSGGSTYYADSVKGRYTISRDNAKNTVYLQMNSLKPEDTAVYDCNADFAPWDKQDYPYDYDYWGQGTQVTVSS | low polyreactivity
QVQLVESGGGLVQAGGRLRLSCAASGITFKRYAMGWYRQAPRKERELVAAISDIGGRTYYADSVKGRFSISRDNAKNTVYLQMYSLKPEDTAVYYCAADYYSPVDWYYYWGQGTQVTVSS | high polyreactivity
QVQLVESGGGLVQAGGRLRLSCAASGITFWTYAMGWYRQAPGKERELVARISKSGARTFYADSVKGRFTISRDNAKNTVYLQMNSLKPEDTAVYYCAADRGPRPVTWYDYWGQGTQVTVSS | high polyreactivity
QVQLVESGGGLVQAGGRLRLSCAASGITSDVYAMGWYRQAPGKERELVAAISSAGSTYYADSVKGRFTISRDNAKNTVYLQMNSLKPEDTAVYYCDAAGYPQTYLYYYWGQGTQVTVSS | low polyreactivity
QVQLVESGGGLVQAGGRLRLSCAASGLTFYRNAMGWYRQAPGKERELVAAITTSGARTYYADSVKGRFTISRDNAKNTVYLRMNSLKPDVTAVYYCNAPVRRDVAYGYWGQGTQVTVSS | high polyreactivity
QVQLVESGGGLVQAGGRLRLSCAASGLTLRWYAMGWYRQAPGKERELVAVISGSGSTNYADSVKGRFTISRDNAKNTVYLQMNSLKPEDTAVYYCAAQSHLGTPQRFGYWGQGTQVTVSS | low polyreactivity
QVQLVESGGGLVQAGGRLRLSCAASGNTFGINAMGWYRQAPGKEREFVAAITFGGGRTYYADSVKGRFTISRDNAKNTVYFQMNSLKPEDTAVYFCAARAPVVTYTWSSPRWWFDYWGQGTQVTVSS | high polyreactivity
QVQLVESGGGLVQAGGRLRLSCAASGRIFKRYAMGWYRQAPGKESELVAAISWRGGSTYYADSVKGRFTISRDNAKNTVYFQMNSLKPEDTAVYYCAAGYFSYRRYDYWGQGTQVTVSS | high polyreactivity
QVQLVESGGGLVQAGGRLRLSCAASGRIFSYAMGWYRHAPGNERELVGGISRSGGSTYYADSVKGRFTISRDNAKNTVYLQMNSQKPVDTAVYYCAADSSLSASEYDSWGQGTQVTVSS | high polyreactivity
QVQLVESGGGLVQAGGRLRLSCAASGRIFVQYVMGWYRQAPGKERELVAAITGSDSTTYYADSVKGRFTISRDNAKNTVYLQMNSLKPEDTAVYYCNKDLWLQDDYWGQGTQVTVSS | low polyreactivity
QVQLVESGGGLVQAGGRLRLSCAASGRIFWSNTMGWYRQAPGKERELVAAISGRGGSTYYPDSVKGRFTISRDNAKNTVYLQMNSLKPEDTAVYYCAAKPTRSRKIYEYWGQGTQVTVSS | low polyreactivity
QVQLVESGGGLVQAGGRLRLSCAASGRIFYPYDMGWYRQEPGKERELVAAISRSDGITYYADSVKGRFTISRDNAKNTVYLQMKSLKPEDTPVYYCAADDPSGHYPDFEYWGQGTQVTVSS | low polyreactivity
QVQLVESGGGLVQAGGRLRLSCAASGRILYVYLMGWYRQAPGKERELGAAISRRGGGTYYADSVKGRFTISRDNAKNTVYLQMNSLKPEDTAVYYCATDQYYEYDYWGQGTQVTVSS | low polyreactivity
QVQLVESGGGLVQAGGRLRLSCAASGRTFDDYAMGWYRQAPGKERELVAVITSGGRTKYADSVKGRFTISRDNAKNTVYLQMNSLKPEDTAVYYCAAREVHDRYGYWGQGTQVTVSS | high polyreactivity
